As usually defined, the Kd is a measure of binding affinity in units of concentration. Lower therefore signals higher affinity.

Here are results for 19 substances from US20230303715A1.

Assay [1] addresses FcγRIIa (UniProt P12318). Kind of assay: SPR; KD wt/KD mut vs 16588. (SPR reads the build-up and loss of mass on a sensor chip optically.)
The target in assay [2] is FcγRIIb (UniProt P31994). Kind of assay: SPR; KD wt/KD mut vs 16588.
The target in assay [3] is FcγRIIa (UniProt P12318). The assay is described as follows: SPR Biacore, Ab on HER2 chip.
Assay [4] addresses FcγRIIb (UniProt P31994). The assay is described as follows: SPR Biacore, Ab on HER2 chip.

Sequence of FcγRIIb (P31994 43-217 limits assumed): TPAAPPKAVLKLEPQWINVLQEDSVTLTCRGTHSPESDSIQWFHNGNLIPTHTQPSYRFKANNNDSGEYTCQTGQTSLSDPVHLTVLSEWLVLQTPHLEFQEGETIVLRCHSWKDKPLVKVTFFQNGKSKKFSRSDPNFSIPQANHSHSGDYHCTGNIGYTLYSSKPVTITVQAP

With “trastuzumab Scaffold 1 variant 19305 (A339W) (antibody)”, in the assay with FcγRIIa [1], the Relative FcγRIIa Binding was found to be 1.72. This substance had a Relative FcγRIIb Binding in the assay with FcγRIIb [2] of 1.81. Moreover, the Kd in the assay with FcγRIIa [3] was 0.64 µM; with FcγRIIb [4] it was 2.1 µM.

“trastuzumab Scaffold 1 variant 19323 (R292C_V302C) (antibody)” gave a Relative FcγRIIa Binding in the assay with FcγRIIa [1] of 0.3. For the same substance, the Relative FcγRIIb Binding with FcγRIIb [2] turned out to be 0.22. Also, the figures for the Kd in the assay with FcγRIIa [3] and in the assay with FcγRIIb [4] were 3.66 µM and 17.6 µM, respectively.

The substance “trastuzumab Scaffold 1 variant 19322 (V259C_L306C) (antibody)” yielded a Relative FcγRIIa Binding with FcγRIIa [1] of 1.45. In the assay with FcγRIIb [2], this substance showed a Relative FcγRIIb Binding of 1.02. The Kd is 0.758 µM in the assay with FcγRIIa [3] and 3.72 µM with FcγRIIb [4].

In turn, “trastuzumab Scaffold 1 variant 19309 (L242I) (antibody)” yielded a Kd with FcγRIIb [4] of 5.07 µM.

With “trastuzumab Scaffold 1 variant 19316 (M252S) (antibody)”, the Relative FcγRIIa Binding in the assay with FcγRIIa [1] is 0.94. The same substance came in with a Relative FcγRIIb Binding with FcγRIIb [2] of 1.01. Also, the Kd in the assay with FcγRIIa [3] is 1.16 µM; with FcγRIIb [4], 3.75 µM.

“trastuzumab Scaffold 1 variant 19328 (T289C_S304C) (antibody)” displayed a Relative FcγRIIa Binding with FcγRIIa [1] of 1.6. The Relative FcγRIIb Binding with FcγRIIb [2] was 1.85. Moreover, the values for the Kd with FcγRIIa [3] and with FcγRIIb [4] were 0.689 µM and 2.05 µM, respectively.

In the assay with FcγRIIa [1], “trastuzumab Scaffold 1 variant 19329 (F243C_T260C) (antibody)” returned a Relative FcγRIIa Binding of 0.38. This substance came in with a Relative FcγRIIb Binding with FcγRIIb [2] of 0.39. Moreover, the Kd in the assay with FcγRIIa [3] worked out at 2.93 µM; in the assay with FcγRIIb [4], 9.83 µM.

“trastuzumab Scaffold 1 variant 19324 (D249C_P257C) (antibody)”: the Kd with FcγRIIb [4] was determined as 14 µM.

Consider “trastuzumab Scaffold 1 variant 19319 (K334R) (antibody)”, for which the Relative FcγRIIa Binding with FcγRIIa [1] was found to be 1.17. Further, in the assay with FcγRIIb [2], the Relative FcγRIIb Binding amounted to 1.29. Besides, the Kd with FcγRIIa [3] turned out to be 0.941 µM; in the assay with FcγRIIb [4], 2.95 µM.

Substance “trastuzumab Scaffold 1 variant 19312 (V279I) (antibody)” came in with a Relative FcγRIIa Binding in the assay with FcγRIIa [1] of 0.94. Further, the Relative FcγRIIb Binding with FcγRIIb [2] worked out at 1.02. Further, the figures for the Kd with FcγRIIa [3] and with FcγRIIb [4] were 1.17 µM and 3.72 µM, respectively.

In the case of “trastuzumab Scaffold 1 variant 19306 (A339Q) (antibody)”, the Kd was determined as 1.04 µM with FcγRIIa [3] and 3.81 µM in the assay with FcγRIIb [4].

“trastuzumab Scaffold 1 variant 19314 (Y319F) (antibody)” showed a Kd with FcγRIIb [4] of 3.49 µM.

The substance “trastuzumab Scaffold 1 variant 19318 (L314M) (antibody)” returned a Relative FcγRIIa Binding with FcγRIIa [1] of 0.55. Also, the Relative FcγRIIb Binding with FcγRIIb [2] was 0.66. The Kd is 2.02 µM with FcγRIIa [3] and 5.76 µM in the assay with FcγRIIb [4].

On to “trastuzumab Scaffold 1 variant 19325 (F275C_S304C) (antibody)”, for which the Kd with FcγRIIb [4] was 4.91 µM.

In the case of “trastuzumab Scaffold 1 variant 19307 (A378W) (antibody)”, in the assay with FcγRIIa [1], the Relative FcγRIIa Binding was found to be 0.76. In the assay with FcγRIIb [2], this substance returned a Relative FcγRIIb Binding of 0.7. In addition, the equilibrium dissociation constant (Kd) stood at 1.45 µM in the assay with FcγRIIa [3] and 5.46 µM with FcγRIIb [4].

The substance “trastuzumab Scaffold 1 variant 19304 (T289W) (antibody)” showed a Kd with FcγRIIb [4] of 3.46 µM.

In the assay with FcγRIIa [1], “trastuzumab Scaffold 1 variant 19311 (F275I) (antibody)” gave a Relative FcγRIIa Binding of 1.48. Moreover, the Relative FcγRIIb Binding with FcγRIIb [2] amounted to 1.71. The Kd came to 0.745 µM with FcγRIIa [3] and 2.22 µM in the assay with FcγRIIb [4].

As for “trastuzumab Scaffold 1 variant 19331 (V240C_I332C) (antibody)”, in the assay with FcγRIIa [1], the Relative FcγRIIa Binding amounted to 0.02. The Relative FcγRIIb Binding with FcγRIIb [2] stood at 0.23. In addition, the Kd in the assay with FcγRIIa [3] came out at 63.7 µM; in the assay with FcγRIIb [4], 16.9 µM.

With “trastuzumab Scaffold 1 variant 19313 (V308I) (antibody)”, in the assay with FcγRIIa [1], the Relative FcγRIIa Binding turned out to be 0.89. The substance further returned a Relative FcγRIIb Binding with FcγRIIb [2] of 0.94. Also, the dissociation constant (Kd) with FcγRIIa [3] was determined as 1.24 µM; with FcγRIIb [4], 4.03 µM.
